# According to IntAct's records for PubMed 20223215:
# B1: Low-density lipoprotein receptor-related protein 8 (Homo sapiens), Q14114 (parent)
# chain: MGLPEPGPLRLLALLLLLLLLLLLQLQHLAAAAADPLLGGQGPAKDCEKDQFQCRNERCIPSVWRCDEDDDCLDHSDEDDCPKKTCADSDFTCDNGHCIHERWKCDGEEECPDGSDESEATCTKQVCPAEKLSCGPTSHKCVPASWRCDGEKDCEGGADEAGCATLCAPHEFQCGNRSCLAAVFVCDGDDDCGDGSDERGCADPACGPREFRCGGDGGGACIPERWVCDRQFDCEDRSDEAAELCGRPGPGATSAPAACATASQFACRSGECVHLGWRCDGDRDCKDKSDEADCPLGTCRGDEFQCGDGTCVLAIKHCNQEQDCPDGSDEAGCLQGLNECLHNNGGCSHICTDLKIGFECTCPAGFQLLDQKTCGDIDECKDPDACSQICVNYKGYFKCECYPGYEMDLLTKNCKAAAGKSPSLIFTNRHEVRRIDLVKRNYSRLIPMLKNVVALDVEVATNRIYWCDLSYRKIYSAYMDKASDPKEQEVLIDEQLHSPEGLAVDWVHKHIYWTDSGNKTISVATVDGGRRRTLFSRNLSEPRAIAVDPLRGFMYWSDWGDQAKIEKSGLNGVDRQTLVSDNIEWPNGITLDLLSQRLYWVDSKLHQLSSIDFSGGNRKTLISSTDFLSHPFGIAVFEDKVFWTDLENEAIFSANRLNGLEISILAENLNNPHDIVIFHELKQPRAPDACELSVQPNGGCEYLCLPAPQISSHSPKYTCACPDTMWLGPDMKRCYRAPQSTSTTTLASTMTRTVPATTRAPGTTVHRSTYQNHSTETPSLTAAVPSSVSVPRAPSISPSTLSPATSNHSQHYANEDSKMGSTVTAAVIGIIVPIVVIALLCMSGYLIWRNWKRKNTKSMNFDNPVYRKTTEEEDEDELHIGRTAQIGHVYPAAISSFDRPLWAEPCLGETREPEDPAPALKELFVLPGEPRSQLHQLPKNPLSELPVVKSKRVALSLEDDGLP
# Variants of: B1
# Conditions: with reln_mouse Reln
row,Variant,effect of a mutation on the interaction
1,W64H,disrupting interaction
2,D69N,disrupting interaction
3,V63A,decreasing interaction
4,P61A,disrupting interaction
5,D50A,decreasing interaction
